Measurements from patent US20260071003A1 (UNIVERSITY OF GEORGIA RESEARCH FOUNDATION, published 2026).

Experiments:
[1] = target: T1, native human Apolipoprotein L1 (ApoL1), in purified TLF / HDL float / normal human serum / endogenous in … (human, UniProt O14791 28-398); test: Western blot of column purified TLF (2 ug), non-reducing and reducing
T1 construct: Secreted native protein carried on HDL/TLF particles; also called Native ApoL1; endogenous ApoL1
T1 sequence: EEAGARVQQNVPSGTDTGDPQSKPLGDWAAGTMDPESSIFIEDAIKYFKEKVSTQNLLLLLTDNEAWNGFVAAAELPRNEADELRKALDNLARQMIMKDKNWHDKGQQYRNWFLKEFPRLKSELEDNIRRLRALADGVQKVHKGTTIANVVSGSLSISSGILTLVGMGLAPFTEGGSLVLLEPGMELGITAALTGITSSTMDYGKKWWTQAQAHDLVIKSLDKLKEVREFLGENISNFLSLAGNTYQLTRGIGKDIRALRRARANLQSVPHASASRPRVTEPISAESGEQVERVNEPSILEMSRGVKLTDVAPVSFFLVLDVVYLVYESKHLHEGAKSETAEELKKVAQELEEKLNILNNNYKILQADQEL

[2] = target: T2, ApoL1 Protein, human recombinant (Sino Biological 13910-H08B) (human, UniProt O14791 28-398); test: dot blot (native)
T2 construct: also called rApoL1; recombinant ApoL1
T2 sequence: T1 sequence

[3] = target: T2, ApoL1 Protein, human recombinant (Sino …); test: imaging flow cytometry: RPMI 8226 cells pre-incubated with 30 µg/mL bsAb or isotype control, then Alexa-488 labeled recombinant ApoL1
Experimental: Cells were prepared as above with the addition of 15 μg/mL unlabeled ApoL1 in the blocking buffer for overnight incubation. After blocking, cells were washed 2 times with CSB and aliquoted to 50 μl aliquots for each reaction. First, bsAb or isotype control was added at 30 μg/mL for 1.5 hours, followed by 2 washes and […] of Alexa labeled ApoL1-488. Cells were incubated for 1 hour and washed 3 times with the final wash resuspended in 50 μl of CSB.
Imaging flow cytometry acquisition was performed on an ImageStream X MK II (Luminex Corporation, Seattle, Washington) with fluidics set at low speed, sensitivity set to high, magnification set to 60×, and illumination set to: 405:120 mW, 488:200 mW, 561:200 mW, 642:150 mW, SSC:4.38 mW. All samples were acquired using the autosampler with INSPIRE software for an acquisition time of 4000 events or 8 minutes per sample, with events counting SSC channel from 5.2×10\hat{ }5 to 8.9×10\hat{ }7. Gates were set and quantified using IDEAS software version 6.2.
Next, Alexa-488 labeled recombinant ApoL1 was used to determine if cell bound bsAb can bind ApoL1. Some background binding of labeled ApoL1 to cells without bsAb, likely due to existing binding affinities for ApoL1 to cell membranes, was foreseen. […]

[4] = target: T3, BCMA on RPMI 8226 (ATCC CCL-155) multiple myeloma cells (UniProt Q02223 1-184, limits assumed); test: imaging flow cytometry on fixed RPMI 8226 cells; Alexa-488 labeled bsAb at 3 µg/mL against Alexa-488 labeled human IgG1 isotype control
T3 construct: whole, on cells; No BCMA-negative cell control is reported; also called MM cells
T3 sequence (looked up): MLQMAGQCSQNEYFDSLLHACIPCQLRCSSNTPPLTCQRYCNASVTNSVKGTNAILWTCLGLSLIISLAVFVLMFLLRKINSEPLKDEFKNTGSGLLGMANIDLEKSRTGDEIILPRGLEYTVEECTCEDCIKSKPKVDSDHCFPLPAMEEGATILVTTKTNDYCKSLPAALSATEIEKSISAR
Experimental: Cells were cultured according to standard protocols. All cell pelleting were performed at 300× g for 5 minutes at 4 C. One to two days prior to the experiment, cells were washed and split to achieve a cell density of approximately […] in a total volume of 10-30 mL containing 10 nM LY411575 (LY). On the day of the experiment, Zombie NIR dye (BioLegend Cat. 423106) was diluted 1:100 in phosphate-buffered saline (PBS). Cells were washed and resuspended in PBS with Zombie NIR dye at a concentration of 1×10\hat{ }7 cells/mL and incubated for 10 minutes at room temperature. […]
Imaging flow cytometry acquisition was performed on an ImageStream X MK II (Luminex Corporation, Seattle, Washington) with fluidics set at low speed, sensitivity set to high, magnification set to 60×, and illumination set to: 405:120 mW, 488:200 mW, 561:200 mW, 642:150 mW, SSC:4.38 mW. […] Gates were set and quantified using IDEAS software version 6.2.
Imaging flow cytometry was used as an assay to determine if the ApoL1-BCMA-bsAb (bsAb) of Example 8 binds the two intended targets in vitro. First, the bsAb and a human IgG1 isotype control were Alexa-488 labeled and binding affinities were determined by measuring total cellular florescence after incubation. […]

[5] = target: T2, ApoL1 Protein, human recombinant (Sino …); test: Western blot of recombinant ApoL1 (SDS-PAGE, non-reducing and reducing)
[6] = target: T2, ApoL1 Protein, human recombinant (Sino …); test: bridging ELISA control without bsAb (bsAb-): immobilized ApoL1, then rabbit Fc tagged BCMA, detected with anti-rabbit HRP
Experimental: Enzyme-Linked Immunosorbent Assay (ELISA) plates were prepared by incubating them overnight at 4° C. with their respective immobilization buffer (bicarbonate/carbonate coating buffer 100 mM) or blocking buffer (PBS, 0.1% Tween-20, 1% BSA).
For the bridging ELISA experiments, ApoL1 (Sino Cat.13910-H08B) or BCMA (Sino Cat. 10620-H15H) were resuspended at a 1:10,000 dilution in ELISA binding buffer (1×PBST+1% BSA) and then incubated overnight at 4° C. ApoL1 was immobilized across all conditions except where BCMA was immobilized as a primary protein (ApoL1-*). Following immobilization, 100 μl of bispecific antibody (bsAb, […] in ELISA blocking buffer) was added and allowed to incubate for 1 hour at 37° C. Subsequently, each well underwent four rounds of 150 μl washes with 1×PBST. Next, 1 μg/mL rabbit Fc tagged BCMA in ELISA blocking buffer was allowed to incubate for 1 hr at 37° C. followed by four more rounds of 150 μl 1×PBST washes. A secondary binding component, anti-rabbit HRP, was added at 1:10,000 and the plate was incubated for an additional hour at 37° C. followed by another four rounds of 150 μl washes with 1×PBST. […] The reaction was halted by adding 50 μl of Stop Solution, and the absorbance was promptly measured at 450 nm on a SpectraMax iD3 plate reader ([…]).

B1: ascites Prot-G purified anti-ApoL1 antibody, clone SFIII 13.11 (mouse IgG1) (antibody, V domains shown)
VH: EVQLVESGGGLVKPGGSLKLSCAASGFTFSTYAMSWVRQSPEKRLEWVAEISNGGLYTYYPDTVTGRFTISRDNVKNILYLEMSSLRSEDTAIYYCIRENRNWYFDLWGAGTTVTVSS
VL: DVLMTQTPLSLPVSLGDQASISCRSSQSIVNSNGNTYLEWYLQKPGQSPKLLIYKVSNRFSGVPDRFSGSGSGTDFTLKISRVEAEDLGVYYCFQGSHVPLTFGAGTKLELKR
notes: Hybridoma-derived mouse IgG1; also called ascites Pro-G purified antibody; purified antibody
B1: binds [1]; binds [2].

B2: Clone 13.11×BCMAscFv: bsAbBCMA/ApoL1, anti-ApoL1, BCMA IgG1-scFv (Heavy Chain C-terminus) bispecific antibody (bispecific antibody)
heavy: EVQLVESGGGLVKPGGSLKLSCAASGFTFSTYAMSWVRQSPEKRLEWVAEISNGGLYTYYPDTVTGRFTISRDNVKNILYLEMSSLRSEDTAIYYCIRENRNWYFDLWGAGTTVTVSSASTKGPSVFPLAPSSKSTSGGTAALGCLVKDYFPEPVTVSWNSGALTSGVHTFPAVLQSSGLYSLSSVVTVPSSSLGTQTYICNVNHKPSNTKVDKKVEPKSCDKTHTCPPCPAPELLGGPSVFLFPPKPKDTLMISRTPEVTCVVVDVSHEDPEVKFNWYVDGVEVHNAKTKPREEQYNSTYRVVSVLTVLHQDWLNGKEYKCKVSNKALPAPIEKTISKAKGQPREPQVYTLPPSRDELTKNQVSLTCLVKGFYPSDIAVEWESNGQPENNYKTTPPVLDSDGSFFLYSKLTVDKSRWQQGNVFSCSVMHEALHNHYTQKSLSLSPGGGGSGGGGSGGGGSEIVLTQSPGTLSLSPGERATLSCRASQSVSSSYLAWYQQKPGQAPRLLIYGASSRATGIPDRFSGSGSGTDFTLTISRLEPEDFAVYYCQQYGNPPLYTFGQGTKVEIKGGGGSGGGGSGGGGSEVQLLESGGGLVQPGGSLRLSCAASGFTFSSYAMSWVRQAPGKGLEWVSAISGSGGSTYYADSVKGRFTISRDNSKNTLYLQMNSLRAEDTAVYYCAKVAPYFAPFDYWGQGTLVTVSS
light: DVLMTQTPLSLPVSLGDQASISCRSSQSIVNSNGNTYLEWYLQKPGQSPKLLIYKVSNRFSGVPDRFSGSGSGTDFTLKISRVEAEDLGVYYCFQGSHVPLTFGAGTKLEIKRTVAAPSVFIFPPSDEQLKSGTASVVCLLNNFYPREAKVQWKVDNALQSGNSQESVTEQDSKDSTYSLSSTLTLSKADYEKHKVYACEVTHQGLSSPVTKSFNRGEC
notes: It was used unlabeled, HRP-labeled or Alexa Fluor 488 labeled, depending on the assay; also called ApoL1-BCMA-bsAb; 488-bsAb
In the case of B2, the “fold increase in average cell fluorescence compared to isotype control” value [3] is reported as 2 × and the “fold increase of measured fluorescence per cell compared to isotype control” value [4] is reported as 20 ×.

B3: recombinant anti-Hpr antibody, clone SFII 134.3 (antibody, V domains shown)
VH: QIQLVQSGPELKKPGETVKISCKASGYIFTNYGMNWVRQAPGKGLKWMGWINSYTGEATYTDDLKGRFAFSLESSASTAYLQINNLKNEDTATYFCAREGYGDYGYSFDYWGQGTTLTVSS
VL: DIQMTQSPASLSASVGETVTITCRATKNIYTYLAWYQQKQGKSPQFLVYNAKTLAEGVPSRFSGSGSGTQFSLKINSLQPEDFGNYYCQHHYGTPRTFGGGTKLEIK
notes: Recombinant form of mouse anti-Hpr clone SFII 134.3; it was detected with goat anti-mouse secondary; also called recombinant antibody
B3: no binding (tested: 1:10,000 dilution of antibody) [5].

B4: ascites Prot-G purified anti-Hpr antibody, clone SFII 134.3 (mouse IgG2a) (antibody, V domains shown)
VH: B3 VH
VL: DIQMTQSPASLSASVGETVTITCRATKNIYTYLAWYQQKQGKSPQFLVYNAKTLAEGVPSRFSGSGSGTQFSLKINSLQPEDFGNYYCQHHYGTPRTFGGGTKLEIKR
notes: Hybridoma-derived mouse IgG2a; also called ascites Pro-G purified antibody; purified antibody
B4: no binding (tested: 1:10,000 dilution of antibody) [5].

B5: BCMA Protein, Human, Recombinant (ECD, rFc Tag) (Sino Biological 10620-H15H) (Fc fusion, UniProt Q02223 1-54, looked up)
chain: MLQMAGQCSQNEYFDSLLHACIPCQLRCSSNTPPLTCQRYCNASVTNSVKGTNA
notes: extracellular domain; Bought protein; also called recombinant BCMA; rabbit Fc tagged BCMA; not shown: rabbit Fc tag
B5: no binding (tested: 1 µg/mL rabbit Fc tagged BCMA) [6].
